IntAct's records for PubMed 21074049

B1: ERAD-associated E3 ubiquitin-protein ligase HRD1 (Saccharomyces cerevisiae), Q08109 (parent)
chain: MVPENRRKQLAIFVVVTYLLTFYCVYSATKTSVSFLQVTLKLNEGFNLMVLSIFILLNSTLLWQLLTKLLFGELRLIEHEHIFERLPFTIINTLFMSSLFHERYFFTVAFFGLLLLYLKVFHWILKDRLEALLQSINDSTTMKTLIFSRFSFNLVLLAVVDYQIITRCISSIYTNQKSDIESTSLYLIQVMEFTMLLIDLLNLFLQTCLNFWEFYRSQQSLSNENNHIVHGDPTDENTVESDQSQPVLNDDDDDDDDDRQFTGLEGKFMYEKAIDVFTRFLKTALHLSMLIPFRMPMMLLKDVVWDILALYQSGTSLWKIWRNNKQLDDTLVTVTVEQLQNSANDDNICIICMDELIHSPNQQTWKNKNKKPKRLPCGHILHLSCLKNWMERSQTCPICRLPVFDEKGNVVQTTFTSNSDITTQTTVTDSTGIATDQQGFANEVDLLPTRTTSPDIRIVPTQNIDTLAMRTRSTSTPSPTWYTFPLHKTGDNSVGSSRSAYEFLITNSDEKENGIPVKLTIENHEVNSLHGDGGEQIAKKIVIPDKFIQHI
partner: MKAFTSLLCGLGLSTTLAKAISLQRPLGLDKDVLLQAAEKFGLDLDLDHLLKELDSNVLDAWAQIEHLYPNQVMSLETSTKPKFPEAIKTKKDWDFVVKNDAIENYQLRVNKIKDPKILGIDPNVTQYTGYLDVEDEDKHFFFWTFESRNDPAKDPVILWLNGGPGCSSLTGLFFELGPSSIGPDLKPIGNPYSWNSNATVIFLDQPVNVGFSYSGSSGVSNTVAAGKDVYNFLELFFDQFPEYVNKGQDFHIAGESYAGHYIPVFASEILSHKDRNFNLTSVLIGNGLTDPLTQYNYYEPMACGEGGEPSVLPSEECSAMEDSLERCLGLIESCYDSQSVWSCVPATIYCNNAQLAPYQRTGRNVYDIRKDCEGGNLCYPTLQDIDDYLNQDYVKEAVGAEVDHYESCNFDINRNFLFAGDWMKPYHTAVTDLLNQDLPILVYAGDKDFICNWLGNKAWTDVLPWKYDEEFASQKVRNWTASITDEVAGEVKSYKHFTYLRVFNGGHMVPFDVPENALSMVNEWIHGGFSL

Variants of: B1
Details: with cbpy_yeast PRC1, P00729

Row | effect of a mutation on the interaction | Variant
1 | decreasing interaction | C399S
